US7740850B2, “PDGFRβ-specific antibodies” (ImClone, LLC, priority 2007, dated 2010)

Key:
human PDGFRβ = test: Cross-reactivity binding test (soluble recombinant protein or cell-surface receptor on human tumor cell lines); conditions: soluble recombinant protein or cell-surface-expressed receptor on human tumor cell lines
[1] = test system: blood vessels and pericytes in BxPC3 tumor xenografts; test: Immunohistochemistry of tumor sections (CD31 / α-SMA double staining); type: in vivo, mouse; conditions: BxPC3 tumors, Day 34 post treatment
From the text: FIG. 5 represents results of immunohistochemical analysis of human xenografts after treatment with 1B3, DC101, or DC101 plus 1B3. On Day 34 (BxPC3 model, panel A to C) or 50 (NCI-H460 model, panel D to F) post treatment, six mice from each group were sacrificed and tumors were processed for IHC analysis. Tumors were sectioned and double staining for both blood vessels (anti-CD31) and pericyte/SMC coverage (α-SMA, panel B and E). Five digital immunofluorescence images of tumor periphery and tumor core from each section were acquired and quantified for total CD31^+ vessels (panel A and D), α-SMA^+ vessels (panel B and E), and the percentage of dual CD31^+/α-SMA^+ over total CD31^+ vessels (panel C and F). Two different quantitation methods were used to measure the degree of vascularity of individual tumor sections: vessel density (numbers of vessels/[…]) and percentage of vessel area (% vessel area over total tumor area). For statistic analysis, two-way ANOVA followed by Fisher's LSD method was used for multiple comparisons (Sigma Stat 3.1 Systat Software, Inc., Point Richmond, Calif.). *P<0.05 compared to the saline group. Open bars, tumor periphery; solid bars, tumor core. […]
Immunofluorescence images (at 200× magnification) were acquired using EZ-C1 2.20 software through a digital camera connected to a confocal microscope (Nikon Eclipse TE2000U). Computer assisted morphologic quantification was performed using Image Pro Plus software (MediaCybernatics, Silver Spring, Md.) and analyzed from each section.
Five digital images of tumor periphery and tumor core from each section were counted for total CD31^+ vessels, α-SMA^+ vessels, mature vessels (dual CD31^+ and α-SMA^+), and the percentage of dual CD31^+/α-SMA^+ vessels over total CD31^+ vessels. Two different quantitation methods were used to measure the degree of vascularity of individual tumor sections: vessel density (numbers of vessels/[…]) and percentage of vessel area (% vessel area over total tumor area). Computer assisted morphologic quantification was performed using Image Pro Plus software. […]

PDGFRβ = test: Epitope mapping, binding domains; conditions: chimeric and shorter PDGFRβ constructs
Experimental: (§1) 2C5 binds to domain 1 (D1) and domain 2 (D2) of PDGFRβ. Various chimeric constructs of PDGFRβ and PDGFRα were first made by domain swapping, starting from N-terminus to C-terminus with PDGFRβ domain(s) replacing PDGFRα domain(s). The PDGFRβ/α chimera were tested for the ability of 2C5 binding. Shorter versions of PDGFRβ, including D1D2, D2D3 and D1D2D3, were then made to confirm the 2C5 binding domains on PDGFRβ.

3β2α = test: Epitope mapping, PDGFRβ/α chimera; type: binding; conditions: ✓ / X, key not given
Experimental: as §1

4β1α = test: Epitope mapping, PDGFRβ/α chimera; type: binding; conditions: ✓ / X, key not given
Experimental: as §1

h5β = h5β (Homo sapiens, UniProt P09619); test: Epitope mapping; type: binding; conditions: ✓ / X, key not given
Experimental: as §1, with “Various” for “2C5 binds to domain 1 (D1) and domain 2 (D2) of PDGFRβ. Various”

β1-3 = test: Epitope mapping, shorter version of PDGFRβ (D1D2D3); type: binding; conditions: ✓ / X, key not given
Experimental: as §1

Chain of human PDGFRβ (P09619 33-532 limits assumed): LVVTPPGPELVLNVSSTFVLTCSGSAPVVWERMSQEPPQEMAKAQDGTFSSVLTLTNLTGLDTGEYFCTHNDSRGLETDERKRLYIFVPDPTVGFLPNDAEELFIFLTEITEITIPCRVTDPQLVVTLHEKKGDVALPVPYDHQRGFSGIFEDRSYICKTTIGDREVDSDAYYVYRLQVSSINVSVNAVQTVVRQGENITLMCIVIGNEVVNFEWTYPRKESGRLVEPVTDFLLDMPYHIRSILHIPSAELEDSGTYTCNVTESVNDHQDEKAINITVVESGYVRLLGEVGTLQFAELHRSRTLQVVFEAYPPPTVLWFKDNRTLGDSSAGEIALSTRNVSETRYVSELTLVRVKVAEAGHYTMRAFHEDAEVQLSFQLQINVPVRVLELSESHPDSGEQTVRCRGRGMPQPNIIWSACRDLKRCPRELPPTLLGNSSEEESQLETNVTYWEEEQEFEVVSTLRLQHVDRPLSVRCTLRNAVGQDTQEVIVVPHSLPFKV
Chain of h5β (P09619 33-532 limits assumed): as above

| Molecule | cross-reactivity, binding to human PDGFRβ (human PDGFRβ) | CD31^+ vessel density ([1]; 40 mg/kg three times a week) | α-SMA^+ vessel density / α-SMA staining ([1]; 40 mg/kg three times a week) | percentage of CD31/α-SMA double positive (mature) vessels over total CD31^+ vessels ([1]; versus saline) | binding domains on PDGFRβ (PDGFRβ) | binding to 3β2α (3β2α) | binding to 4β1α (4β1α) | binding to h5β (h5β) | binding to β1-3 (β1-3) |
| --- | --- | --- | --- | --- | --- | --- | --- | --- | --- |
| 1B3: human anti-mouse PDGFRβ antibody from Fab phage display library, human κ/γ1 constant regions; SEQ ID NOS in Table 1 (antibody, listed as Homo sapiens, V domains shown, human kappa/gamma1 constant regions) VH: QVQLQESGGGLVKPGGSLRLSCAASGFTFSSYSMNWVRQAPGKGLEWVSSISSSSSYIYYADSVKGRFTISRDNSKNTLYLQMNSLRAEDTAVYYCAKGGRPLLVFDFWGQGTLVTVS VL: EIVMTQSPGTLSLSPGERATLSCRASQSVSSSYLAWYQQKPGQAPRLLIYDASKRATGIPARFSGSGSGTDFTLTISTLESEDSAVYYCQQRGYWPPITFGQGTRLEIKR | No cross-reactivity was observed | no significant effect on overall tumor vessel density | reduced the α-SMA staining in tumor periphery | reduced percentage |  |  |  |  |  |
| 2C5: PDGFRβ-specific human antibody binding both human and murine PDGFRβ; SEQ ID NOS in Table 1 (antibody, listed as Homo sapiens, V domains shown) VH: QVQLVQSGAEVKKPGSSVKVSCKASGGTFSSYAISWVRQAPGQGLEWMGRIIPILGIANYAQKFQGRVTITADKSTSTAYMELSSLRSEDTAVYYCARDMGSRNYYYFYWGQGTLVTVSS VL: EIVLTQSPATLSLSPGERATLSCRASQSVGRYLAWYQQKPGQAPRLLIYGASNRATGIPARFSGSGSGTDFTLTISSLEPEDFAVYYCQQRSNWPLTFGGGTKVEIK |  |  |  |  | binds to PDGFRβ via both D1 and D2 of the receptor | ✓ | ✓ | ✓ | ✓ |
